Data as given in publication PMC7132299 (Proceedings of the National Academy of Sciences of the …, 2020).
Where two headings read alike, the source gives them in different places. Values belong to the molecule of their own block, whether it stands above or below them.

Columns and labels:
[1] = target: LRX11 (insect-cell protein, limits not stated for the experiment) (Arabidopsis thaliana); assay: SEC-MALS
wild-type pollen tubes = assay: Pollen tube growth assay after peptide addition; format: cell-based, Arabidopsis thaliana; conditions: peptide at 50 and 100 nM
[2] = target: LRX8_(49–400) (Arabidopsis thaliana); assay: ITC
[3] = target: LLG3 ectodomain (residues 24 to 137) (Arabidopsis thaliana) (UniProt Q9M0I0); assay: ITC
[4] = target: LLG2 ectodomain (residues 24 to 135) (Arabidopsis thaliana) (UniProt Q6NLF4); assay: ITC
[5] = target: LRX8_(C157A.Y87A.A133F) (Arabidopsis thaliana); assay: ITC
[6] = target: LRX8_(49–400) (Arabidopsis thaliana); assay: ITC; remark: listed apart in the source
[7] = target: LLG3 ectodomain (residues 24 to 137) (Arabidopsis thaliana) (UniProt Q9M0I0); assay: ITC; remark: listed apart in the source
[8] = target: biotinylated LRX8 (49 to 400) fused to a noncleavable Avi-tag (Arabidopsis thaliana); assay: grating-coupled interferometry
[9] = target: LRX8 (insect-cell protein, limits not stated for the experiment) (Arabidopsis thaliana); assay: SEC-MALS
SEC-MALS = target: the molecule itself; assay: SEC-MALS
[10] = target: LRX8_(49–400) (Arabidopsis thaliana); assay: ITC; remark: listed apart in the source

LLG3 ectodomain (residues 24 to 137) (Arabidopsis thaliana), sequence (Q9M0I0 24-137): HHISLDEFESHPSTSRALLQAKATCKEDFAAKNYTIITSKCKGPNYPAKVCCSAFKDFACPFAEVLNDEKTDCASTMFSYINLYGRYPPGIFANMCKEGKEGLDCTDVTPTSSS
LLG2 ectodomain (residues 24 to 135) (Arabidopsis thaliana), sequence (Q6NLF4 24-135): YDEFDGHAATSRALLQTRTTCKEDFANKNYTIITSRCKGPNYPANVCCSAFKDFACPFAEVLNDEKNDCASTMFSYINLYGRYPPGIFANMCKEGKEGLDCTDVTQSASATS

Molecule: LRX11 (insect-cell protein, limits not stated for the experiment) (domain or fragment)
- stoichiometry N [1]: 2

Molecule: PTYNSCRRKCKRDRGYAARRYKRYRYVNADIKRNHSGYPCRICSRLYGRN [RALF4scrambled]
- effect on pollen tube growth, in words (wild-type pollen tubes): no effect

Molecule: RALF4_(folded) (RALF4 residues 58 to 110, isolated from insect cells) (peptide)
- Kd [2]: 100 nM
- Kd [3]: 1500 nM
- Kd [4]: 500 nM
- Kd [5]: 2.5 nM
- Kd [6]: 3.5 nM
- Kd [7]: 11000 nM
- kon [8]: 400000 M⁻¹ s⁻¹
- stoichiometry N [9]: 1
- stoichiometry N [1]: 1

B1: LRX8 (insect-cell protein, limits not stated for the experiment) (domain or fragment)
chain: ENGDLPDDIEYEVDLDLKFANNRLKRAYIALQAWKKAFYSDPFNTAANWVGPDVCSYKGVFCAPALDDPSVLVVAGIDLNHADIAGYLPPELGLLTDVALFHVNSNRFCGVIPKSLSKLTLMYEFDVSNNRFVGPFPTVALSWPSLKFLDIRYNDFEGKLPPEIFDKDLDAIFLNNNRFESTIPETIGKSTASVVTFAHNKFSGCIPKTIGQMKNLNEIVFIGNNLSGCLPNEIGSLNNVTVFDASSNGFVGSLPSTLSGLANVEQMDFSYNKFTGFVTDNICKLPKLSNFTFSYNFFNGEAQSCVPGSSQEKQFDDTSNCLQNRPNQKSAKECLPVVSRPVDCSKDKCAGG
modifications: N-glycosylated
- stoichiometry N (SEC-MALS): 2

Molecule: RRYIGYDALKKNNVPCSRRGRSYYDAKKRRRNNPYRRGCSAITHAYRYAR [RALF4_(C86A.C105A)]
- fold reduction of affinity (against RALF4 (folded)) [10]: 10 fold

Molecule: RRYIGYDALKKNNVPCSRRGRSAADCKKRRRNNPYRRGCSAITHCYRYAR [RALF4_(Y83A.Y84A)]
- Kd [10]: 1400 nM

The next lines start with the values.

- Kd [10]: 60 nM
Molecule: RRYIGYDALKKNNVPCSRRGRSYYDCKKRRRNNPYRRGCSAITHCYRYAR [RALF4_(synthetic)]

- fold reduction of affinity (against RALF4 (folded)) [10]: 10 fold
Molecule: RRYIGYDALKKNNVPASRRGRSYYDAKKRRRNNPYRRGASAITHAYRYAR [RALF4_(C76A.C86A.C99A.C105A)]
